Source: patent US20070154954A1, “Fluorescence polarization assay” (TRANSTECH PHARMA, INC., priority 2004, published 2007)
Like-named read-outs stand apart in the source and are kept apart here.

Tests used:
recombinant human sRAGE [1] = biological target: recombinant human sRAGE (Homo sapiens, UniProt Q15109); assay: Fluorescence polarization competition assay: displacement of fluorescent amyloid beta (1-40) from sRAGE; details: read-out: EC50 for competing with fluoresceinated amyloid beta (1-40) for binding to sRAGE, unlabeled ligand, sRAGE 40 nM, fluorescent amyloid beta (1-40) 50 nM, 37° C. 1 hour, FIG. 4, mean of four measurements
Procedure: (§1) Once dissolved, the peptide is diluted with phosphate-buffered saline (calcium-free) to a concentration of 1 mg/ml and allowed to incubate at 37° C. for 24-48 hours.
The complex was incubated at 37° C. for 1 hour and then the milli-polarization (mP) value was read using an Envision plate reader (Perkin Ekmer). In some cases, depending on the purity of the human sRAGE, 0.1% bovine serum albumin (BSA) or 0.05% of the detergent TWEEN 20 may be added to the phospahte buffered saline to reduce background binding of the sRAGE to the assay well.

recombinant human sRAGE [2] = biological target: T1, recombinant human sRAGE (human, UniProt Q15109 23-339); assay: fluorescence polarization, displacement of fluorescent amyloid beta (1-40) from sRAGE
T1 construct: also called soluble RAGE
Procedure: as §1
The complex was incubated at 37° C. for 1 hour and then the milli-polarization (mP) value was read using an Envision plate reader (Perkin Ekmer).

recombinant human sRAGE (Homo sapiens, UniProt Q15109), sequence (Q15109 23-339): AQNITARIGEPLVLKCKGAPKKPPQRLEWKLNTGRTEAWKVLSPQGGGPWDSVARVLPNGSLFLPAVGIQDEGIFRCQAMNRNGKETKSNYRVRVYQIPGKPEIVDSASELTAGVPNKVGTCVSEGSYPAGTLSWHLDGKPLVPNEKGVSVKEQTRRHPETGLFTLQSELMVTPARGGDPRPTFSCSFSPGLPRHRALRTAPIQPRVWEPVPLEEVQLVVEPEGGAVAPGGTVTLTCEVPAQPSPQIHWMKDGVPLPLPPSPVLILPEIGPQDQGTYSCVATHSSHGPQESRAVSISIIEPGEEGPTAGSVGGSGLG
T1 sequence (Q15109 23-339 limits assumed): as the sequence (Q15109 23-339) above

| EC50 (recombinant human sRAGE [2]) [nM] | Molecule | EC50 (recombinant human sRAGE [1]) [nM] | EC50 (recombinant human sRAGE [1]; listed as S100b) [nM] |
| --- | --- | --- | --- |
|  | s100b: unlabeled S100b, calgranulin-like RAGE ligand | ~43 | 43 |
| 43 | unlabeled S100b (ligand) MSELEKAMVALIDVFHQYSGREGDKHKLKKSELKELINNELSHFLEEIKEQEVVDKVMETLDNDGDGECDFQEFMAFVAMVTTACHEFFEHE |  |  |
